US20250115669A1, “FGFR1/KLB Targeting Agonistic Antigen-Binding Proteins and Conjugates Thereof with GLP-1R Agonistic Peptides” (SANOFI, priority 2020, published 2025)

Columns and labels:
[1] = molecular target: cynomolgus monkey beta-Klotho; experiment: SPR binding affinity and kinetics to cynomolgus monkey beta-Klotho (Biacore 8K, anti-human Fc capture); set-up: species or system Cynomolgus monkey (Macaca fascicularis); details: 1:1 binding model, read-out: KD monkey KLB
Method: Binding affinity and kinetics were measured on a Biacore 8K instrument (GE Healthcare). For the affinity capture of the diluted mAb sample, an anti-human Fc antibody (human antibody capture kit, GE Healthcare) was immobilized on all eight channels of a series S CM5 sensor chip (GE Healthcare) to approximately 10.000 RU. The anti-beta-Klotho antibodies were diluted into HBS-EP+ assay buffer (GE Healthcare) to 0.04 μg/mL. The antibodies were injected in the sample compartment, whereas the reference compartment was used without captured antibody. […] For the antigen inject the flow rate was adjusted to 60 μL/min with an association time of 180 sec and a dissociation time of 1800 sec. The maximum binding signal of beta-Klotho was in the range of 30 RU. At the end of each cycle an inject of regeneration solution, supplied with human antibody capture kit (GE Healthcare), supplemented with 10% non-specific binding reducer (GE Healthcare), for 1 min at 30 μL/min to remove antibody and antigen was performed. Binding kinetics data were evaluated with a 1:1 binding model using the Biacore 8K Evaluation Software version 1.1.1.7442 (GE Healthcare).
For interaction analysis with human beta-klotho, mAbs were captured via an anti-human Fc antibody immobilized on a series S CM5 sensor chip (human antibody capture kit, GE Healthcare). […] Binding kinetics data were evaluated with a 1:1 binding model using the Biacore 8K Evaluation Software version 1.1.1.7442 (GE Healthcare). For interaction analysis with Cynomolgus monkey beta-klotho, mAbs were captured via an anti-human Fc antibody immobilized on a series S CM5 sensor chip (human antibody capture kit, GE Healthcare). […] Binding kinetics data were evaluated with a 1:1 binding model using the Biacore 8K Evaluation Software version 1.1.1.7442 (GE Healthcare). Exemplary sensorgrams for the interaction are shown in FIG. 7 (human KLB) and 8 (monkey KLB), as well as in Table G.

[2] = Nano differential scanning fluorimetry (nanoDSF), Tonset and Tm; assay type: physicochemical
Method: Onset temperatures (Tonset) and melting points (Tm) of protein denaturation were determined using nano differential scanning fluorimetry (nanoDSF). Samples were diluted in formulation buffer to a final concentration of 0.5 mg/mL and loaded into nanoDSF capillaries in duplicates (Nanotemper Technologies). All measurements were done using a Prometheus NT.plex nanoDSF device (Nanotemper Technologies). Heating rate was 1° C. per minute from 20° C. to 95° C. Data were recorded using PR.ThermControl Software v2.3.1 (Nanotemper Technologies) and analyzed using PR.Stability Analysis Software v1.0.3 (Nanotemper Technologies).

[3] = Dynamic light scattering (DLS) and diffusion interaction parameter (kD); assay type: physicochemical
Method: Dynamic light scattering (DLS) was performed using a DynaPro Plate Reader (Wyatt Technology). The samples were measured in 384 well assay plates (Corning) at 25° C. Data were evaluated by cumulant fitting using Dynamics Software version 7.7.0.125 (Wyatt Technology).
Colloidal stability of the samples was assessed by measuring the diffusion interaction parameter (kD) at 20° C. using a DynaPro Plate Reader (Wyatt Technology). Before the measurements the samples were buffer exchanged against 5 L of 10 mmol/L Histidine pH 6.0 by dialysis for 20 h with one buffer change using 1 mL Float-A-Lyzer G2 devices with 3.5-5 kDa cut-off (Spectrum Labs). A dilution series from 1 to 4.5 mg/mL, in 0.5 mg/mL increments, was prepared in 10 mmol/L Histidine pH 6.0 and measured in 384 well assay plates (Corning).

[4] = Intact mass spectrometry (IMS); assay type: physicochemical; details: for intact mass Identity confirmed / intact mass Peak intensity post stress: 21 days
Method: Protein integrity was analyzed by LC-MS. […] Reversed phase (RP) chromatography was done using a PLRP-S 1000A 5 μm, 50×2.1 mm (Agilent) with a guard column PLRP-S 300A 5 μm, 3×5 mm (Agilent) at 200 μL/min and 80° C. column temperature. Eluents were buffer A containing LC water and 0.1% formic acid as well as buffer B containing 90% acetonitrile, 10% LC water and 0.1% formic acid. 1 μg of protein was injected onto the column and eluted using linear gradient from 0 to 17 minutes with increasing acetonitrile concentration. Data was analyzed using MassHunter Bioconfirm B.06 (Agilent). Molecular masses were calculated based on the amino acid sequences of the proteins using GPMAW software version 10 (Lighthouse data).

[5] = In vivo PK in transgenic humanized FcRn mice (Tg32); details: 0.3 mg/kg single IV, plasma, noncompartmental analysis
Method: In vivo PK studies were conducted in transgenic humanized FcRn mice (Tg32). For these studies, no GLP compliance was claimed.

Kd [1]: 2.96 nM
Substance: Ab0430: IgG1 NNAS; 16H7 VL (N25S, D49E, D50E, D91E, N93E); 16H7 VH (M34V, I83T, D109E); HC SEQ ID NO: 43, LC SEQ ID NO: 50
Thermal stability DSF Tm [2]: 62 °C
Thermal stability DSF Tonset [2]: 45 °C
DSF Tm ([2]; pH 5, 40° C., d 21): 62 °C
DSF Tonset ([2]; pH 5, 40° C., d 21): 46 °C
DSF Tm ([2]; pH 5, d 0): 62 °C
DSF Tonset ([2]; pH 5, d 0): 45 °C
DSF Tm ([2]; pH 6, 40° C., d 21): 62 °C
DSF Tonset ([2]; pH 6, 40° C., d 21): 46 °C
DSF Tm ([2]; pH 6, d 0): 62 °C
DSF Tonset ([2]; pH 6, d 0): 45 °C
DSF Tm ([2]; pH 8, 40° C., d 21): 66 °C
DSF Tonset ([2]; pH 8, 40° C., d 21): 56 °C
DSF Tm ([2]; pH 8, d 0): 66 °C
DSF Tonset ([2]; pH 8, d 0): 56 °C
Homogeneity DLS Hydrodynamic radius [3]: 5.4 nm
DLS Hydrodynamic radius ([3]; pH 5, 40° C., d 21): 5.4 nm
DLS Hydrodynamic radius ([3]; pH 5, d 0): 5.4 nm
DLS Hydrodynamic radius ([3]; pH 6, 40° C., d 21): 5.4 nm
DLS Hydrodynamic radius ([3]; pH 6, d 0): 5.4 nm
DLS Hydrodynamic radius ([3]; pH 8, 40° C., d 21): 6.3 nm
DLS Hydrodynamic radius ([3]; pH 8, d 0): 5.4 nm
Identity, correct pairing, intact mass, Identity confirmed [4]: Yes
intact mass Identity confirmed ([4]; pH 5, 40° C.): Yes
intact mass Peak intensity post stress ([4]; pH 5, 40° C.): 80%
intact mass Identity confirmed ([4]; pH 6, 40° C.): Yes
intact mass Peak intensity post stress ([4]; pH 6, 40° C.): 81%
intact mass Identity confirmed ([4]; pH 8, 40° C.): Yes
intact mass Peak intensity post stress ([4]; pH 8, 40° C.): 54%
t½ [5]: 15.7 days
